Assay [1] has as its target T1, biotinylated PSMA extracellular domain recombinant protein (Acrobiosystems) (Homo sapiens (Human), UniProt Q04609 44-750, biotinylated).
T1 construct: Bought reagent
Briefly: capture ELISA, curve fit in GraphPad Prism. Here is the method:
(§1) Goat anti-human-IgG1 (Fc specific) (Jackson ImmunoResearch Laboratories, Inc, Pennsylvania, USA) was coated on wells of ELISA plate in 100 μl PBS at the concentration of 3 μg/ml, 4° C. overnight. The wells were washed twice with 200 μl PBST (PBS, pH7.4, containing 0.05% Tween 20) and then blocked with 400 μl PBS™ (PBST containing 5% dry milk) for 2 h at room temperature. Three-fold serially diluted PSMAb and PSMAbLm starting from 6 nM down to 0.1 pM in 50 μl PBS™ were then incubated with the wells respectively for 1 h at room temperature. After 6 washes with PBST, the wells were incubated with 50 μl biotinylated PSMA extracellular domain recombinant protein (Acrobiosystems, Delaware, USA) at the concentration of 0.5 μg/ml in PBS™ for 1 h at room temperature. After incubation, the wells were washed 6 times using PBST and incubated with 50 μl 1:1000 diluted streptavidin-HRP (BD bioscience, California, USA) in PBS™. After final 6 washes with PBST, colorimetric signals were developed by incubation with 70 μl 3, 3′, 5, 5′-tetramethylbenzidine (TMB, eBioscience, CA, USA) and for 20 min at room temperature, then stopped by incubation with 70 μl 1 M H₂SO₄. The absorbance was measured at 450 nm using a microplate reader (VWR, PA, USA). The binding curves were analyzed using GraphPad Prism 5.0 software.
(§2) CDR3 regions of both heavy and light chains are pivotal for antigen binding. […]
On the technique in general: ELISA stands for enzyme-linked immunosorbent assay.

For assay [2], the target named is PSMA on PSMA+CHO cells (UniProt Q04609 1-750, limits assumed). Description: cell-based or functional assay.
The target in assay [3] is T1, biotinylated PSMA extracellular domain …. Briefly: capture ELISA. The procedure:
as §1, §2

By Kd is commonly meant the equilibrium constant for the complex coming apart.

Chain of PSMA on PSMA+CHO cells (Q04609 whole entry, the tested form may be a part): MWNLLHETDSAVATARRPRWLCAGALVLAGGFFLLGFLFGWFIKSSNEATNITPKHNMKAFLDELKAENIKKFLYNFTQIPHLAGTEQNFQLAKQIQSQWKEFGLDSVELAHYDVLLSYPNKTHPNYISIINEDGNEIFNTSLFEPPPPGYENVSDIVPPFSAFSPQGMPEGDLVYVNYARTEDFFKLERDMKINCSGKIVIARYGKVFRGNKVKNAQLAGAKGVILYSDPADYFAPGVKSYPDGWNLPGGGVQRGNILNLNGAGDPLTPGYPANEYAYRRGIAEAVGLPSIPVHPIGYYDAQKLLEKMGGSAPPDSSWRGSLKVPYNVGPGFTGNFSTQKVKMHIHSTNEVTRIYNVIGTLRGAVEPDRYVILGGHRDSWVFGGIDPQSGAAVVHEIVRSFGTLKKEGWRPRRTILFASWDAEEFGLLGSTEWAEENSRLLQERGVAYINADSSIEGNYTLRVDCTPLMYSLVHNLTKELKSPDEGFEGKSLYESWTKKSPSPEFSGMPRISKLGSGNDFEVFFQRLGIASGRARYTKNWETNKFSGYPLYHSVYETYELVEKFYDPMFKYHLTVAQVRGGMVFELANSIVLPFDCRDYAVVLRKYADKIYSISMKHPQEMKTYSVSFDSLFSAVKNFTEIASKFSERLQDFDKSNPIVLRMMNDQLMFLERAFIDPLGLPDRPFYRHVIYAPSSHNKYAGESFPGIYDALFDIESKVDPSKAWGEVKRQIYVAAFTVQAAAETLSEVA
T1 sequence (Q04609 44-750): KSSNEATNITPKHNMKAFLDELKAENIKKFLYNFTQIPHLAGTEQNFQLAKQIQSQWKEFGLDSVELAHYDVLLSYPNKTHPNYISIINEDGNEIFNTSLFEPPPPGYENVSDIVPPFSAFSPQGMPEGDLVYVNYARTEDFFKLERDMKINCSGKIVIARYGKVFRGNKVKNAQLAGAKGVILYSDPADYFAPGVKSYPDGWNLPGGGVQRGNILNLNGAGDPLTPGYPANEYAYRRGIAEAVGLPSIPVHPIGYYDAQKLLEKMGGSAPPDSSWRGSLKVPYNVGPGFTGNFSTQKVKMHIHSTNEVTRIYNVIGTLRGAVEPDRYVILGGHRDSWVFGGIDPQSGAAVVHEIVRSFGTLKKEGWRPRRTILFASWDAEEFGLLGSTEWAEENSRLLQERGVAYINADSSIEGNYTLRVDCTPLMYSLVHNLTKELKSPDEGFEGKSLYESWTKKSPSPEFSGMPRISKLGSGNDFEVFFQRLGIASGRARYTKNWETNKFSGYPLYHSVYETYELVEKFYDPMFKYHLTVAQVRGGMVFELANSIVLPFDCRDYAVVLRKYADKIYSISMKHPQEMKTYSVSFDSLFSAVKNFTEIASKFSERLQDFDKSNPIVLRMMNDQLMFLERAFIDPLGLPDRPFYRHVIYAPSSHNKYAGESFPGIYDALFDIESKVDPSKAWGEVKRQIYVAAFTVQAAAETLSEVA

B1: PSMAb (parent anti-PSMA full antibody) (antibody, human IgG1, lambda, V domains shown)
VH: EVQLVESGGALAKPGGSLRLSCAASGFTLSGYAMHWVRQAPGKGLEWVAVISYDGSNKYYADSVKGRFTVSRDNSKNTLFLQMNSLRPEDTAVYYCAKGLTWGLGDNDALDIWGPGTTVTVSS
VL: QSVLTQPPSVSGAPGQSVIISCTGSSSNIGAGSHVHWYQQVPGTAPKLLIYENTNRPSGVPDRFSGSKSGTSGSLAITGLQPEDEADYYCATWDDSLNGVIFGGGTKATVLG
notes: IgG1 with lambda constant region; also called PSMAb-WT; PMSAb-WT
Take B1: in assay [1], the Kd was found to be 0.109 nM. In addition, in assay [2], the “Luciferase signal increase fold (ADCC, CD16-Jurkat reporter cells) at 0 pg/ml antibody” value came out at 1.04 fold; the “Luciferase signal increase fold (ADCC, CD16-Jurkat reporter cells) at 2.286 pg/ml antibody” value is 18.4 fold; the “Luciferase signal increase fold (ADCC, CD16-Jurkat reporter cells) at 6.859 pg/ml antibody” value worked out at 30 fold; the “Luciferase signal increase fold (ADCC, CD16-Jurkat reporter cells) at 20.576 pg/ml antibody” value turned out to be 43.1 fold.

B2: PSMAbLm-AF (afucosylated PSMAb with N=>S mutation in light chain CDR3 region) (antibody, human IgG1, lambda, V domains shown)
VH: EVQLVESGGALAKPGGSLRLSCAASGFTLSGYAMHWVRQAPGKGLEWVAVISYDGSNKYYADSVKGRFTVSRDNSKNTLFLQMNSLRPEDTAVYYCAKGLTWGLGDNDALDIWGPGTTVTVSS
VL: QSVLTQPPSVSGAPGQSVIISCTGSSSNIGAGSHVHWYQQVPGTAPKLLIYENTNRPSGVPDRFSGSKSGTSGSLAITGLQPEDEADYYCATWDDSLSGVIFGGGTKATVLG
modifications: afucosylated (expressed in Fut8-/- CHO-K1)
For the molecule B2, in assay [2], the “Luciferase signal increase fold (ADCC, CD16-Jurkat reporter cells) at 0 pg/ml antibody” value amounted to 1.1 fold; the “Luciferase signal increase fold (ADCC, CD16-Jurkat reporter cells) at 2.286 pg/ml antibody” value is 38.9 fold; the “Luciferase signal increase fold (ADCC, CD16-Jurkat reporter cells) at 6.859 pg/ml antibody” value was 56.6 fold; the “Luciferase signal increase fold (ADCC, CD16-Jurkat reporter cells) at 20.576 pg/ml antibody” value amounted to 54.7 fold.

B3: PSMAb-AF (afucosylated PSMAb) (antibody, human IgG1, lambda, V domains shown)
VH: EVQLVESGGALAKPGGSLRLSCAASGFTLSGYAMHWVRQAPGKGLEWVAVISYDGSNKYYADSVKGRFTVSRDNSKNTLFLQMNSLRPEDTAVYYCAKGLTWGLGDNDALDIWGPGTTVTVSS
VL: QSVLTQPPSVSGAPGQSVIISCTGSSSNIGAGSHVHWYQQVPGTAPKLLIYENTNRPSGVPDRFSGSKSGTSGSLAITGLQPEDEADYYCATWDDSLNGVIFGGGTKATVLG
modifications: afucosylated (expressed in Fut8-/- CHO-K1)
As for B3, in assay [2], the “Luciferase signal increase fold (ADCC, CD16-Jurkat reporter cells) at 0 pg/ml antibody” value was determined as 0.859 fold; the “Luciferase signal increase fold (ADCC, CD16-Jurkat reporter cells) at 2.286 pg/ml antibody” value worked out at 33 fold; the “Luciferase signal increase fold (ADCC, CD16-Jurkat reporter cells) at 6.859 pg/ml antibody” value came to 52.9 fold; the “Luciferase signal increase fold (ADCC, CD16-Jurkat reporter cells) at 20.576 pg/ml antibody” value stood at 55.5 fold.

B4: PSMAbLm (PSMAb with N to S mutation in light chain CDR3) (antibody, human IgG1, lambda, V domains shown)
VH: EVQLVESGGALAKPGGSLRLSCAASGFTLSGYAMHWVRQAPGKGLEWVAVISYDGSNKYYADSVKGRFTVSRDNSKNTLFLQMNSLRPEDTAVYYCAKGLTWGLGDNDALDIWGPGTTVTVSS
VL: QSVLTQPPSVSGAPGQSVIISCTGSSSNIGAGSHVHWYQQVPGTAPKLLIYENTNRPSGVPDRFSGSKSGTSGSLAITGLQPEDEADYYCATWDDSLSGVIFGGGTKATVLG
notes: also called PMSAbLm; full antibody from Mut-gy1-2 scFv
Turning to B4, the “fold higher affinity than PSMAb” value in assay [3] is about 2.3 fold. The Kd in assay [1] was determined as 0.0479 nM.

Source of the values: patent US20250236680A1 (XI AN ORIMAB BIOTECHNOLOGY, published 2025).
